To fix the notation:
T1: VEGFR-3-Fc (human, UniProt P35916 25-328)
T1 construct: domain: first three Ig domains; used as conditioned supernatant of 293T cells; also called VEGFR-3-Fc fusion protein; not shown: Fc fragment of the pIg vector
T1 sequence (looked up): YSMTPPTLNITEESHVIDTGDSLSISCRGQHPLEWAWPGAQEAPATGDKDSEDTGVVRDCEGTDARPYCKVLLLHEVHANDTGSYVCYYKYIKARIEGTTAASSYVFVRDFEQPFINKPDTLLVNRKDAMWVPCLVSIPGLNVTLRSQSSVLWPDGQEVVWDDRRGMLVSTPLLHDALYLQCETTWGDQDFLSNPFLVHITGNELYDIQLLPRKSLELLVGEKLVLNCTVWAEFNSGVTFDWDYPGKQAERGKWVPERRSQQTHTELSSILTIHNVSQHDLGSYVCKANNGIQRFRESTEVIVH

B1: 53-3 (ligand)
chain: AHYNTEILKSIDNEWRKTQCMPIETLVDIFQEYPDEIEYIFKPPCVSVYRCGGCCNSEGLQCVPTEESNITMQIMRIKPHQGQHIGEMSFLQHNKCECRPKKD
B2: 72-7 (ligand)
chain: GQNHHEVVKSIDNEWRKTQCMPREVCIDVGKEFGVATNTFFKPPCVSVYRCGGCCNSEGLQCVPTEESNITMQIMRIKPHQGQHIGEMSFANHTSCRCMSKLD
B3: 22-16 (ligand)
chain: AHYNTEILKSIDNEWRKTQCMPREVCIDVGKEFGVATNTFFKPPCVSVYRCGGCCNSEGLQCMNTSTSYLSKTLFEITVPLSQGPKPVTISFANHTSCRCMSKLD
B4: 83-15 (ligand)
chain: AHYNTEILKFMDVYQRSYCHPIETLVDIFQEYPDEIEYIFKPPCVSVYRCGGCCNSEGLQCVPTEESNITMQIMRITVPLSQGPKPVTISFANHTSCRCMSKLD
B5: 82-13 (ligand)
chain: B4 chain with Y32F, P33G, D34V, E35A, I36T, E37N, Y38T, I39F, S56D, Q60E
B6: 12-13 (ligand)
chain: GQNHHEVVKFMDVYQRSYCHPIETLVDIFQEFGVATNTFFKPPCVSVYRCGGCCNDEGLECVPTEESNITMQIMRITVPLSQGPKPVTISFANHTSCRCMSKLN
B7: 12-15 (ligand)
chain: B6 chain with D56S, E60Q, N104D
B8: 12-14 (ligand)
chain: GQNHHEVVKFMDVYQRSYCHPIETLVDIFQEFGVATNTFFKPPCVSVYRCGGCCNDEGLECMNTSTSYLSKTLFEITVPLSQGPKPVTISFANHTSCRCMSKLD
B9: 61-14 (ligand)
chain: GQNHHEVVKFMDVYQRSYCHPREVCIDVGKEYPDEIEYIFKPSCVPLMRCGGCCNDEGLECMNTSTSYLSKTLFEITVPLSQGPKPVTISFANHTSCRCMSKLD
B10: 11-1 (ligand)
chain: GQNHHEVVKFMDVYQRSYCHPIETLVDIFQEYPDEIEYIFKPSCVPLMRCGGCCNDEGLECVPTEESNITMQIMRIKPHQGQHIGEMSFLQHNKCECRPKKD
B11: 12-1 (ligand)
chain: GQNHHEVVKFMDVYQRSYCHPIETLVDIFQEFGVATNTFFKPPCVSVYRCGGCCNDEGLECVPTEESNITMQIMRIKPHQGQHIGEMSFLQHNKCECRPKKD
B12: 12-3 (ligand)
chain: B11 chain with D56S, E60Q
B13: 12-5 (ligand)
chain: B11 chain with L90A, Q91N, N93T, K94S, E96R, R98M, P99S, K101L
B14: 14-9 (ligand)
chain: GQNHHEVVKFMDVYQRSYCHPIETLVDIFQEFGVATNTFFKPSCVPLMRCGGCCNDEGLECVPTEESNITMQIMRITVPLSQGPKPVTISFLQHNKCECRPKKD
B15: 82-9 (ligand)
chain: AHYNTEILKFMDVYQRSYCHPIETLVDIFQEFGVATNTFFKPPCVSVYRCGGCCNDEGLECVPTEESNITMQIMRITVPLSQGPKPVTISFLQHNKCECRPKKD
B16: 82-11 (ligand)
chain: B15 chain with D56S, E60Q
B17: 84-11 (ligand)
chain: B15 chain with P43S, S46P, V47L, Y48M, D56S, E60Q
B18: 12-9 (ligand)
chain: B14 chain with S43P, P46S, L47V, M48Y
B19: 84-9 (ligand)
chain: B15 chain with P43S, S46P, V47L, Y48M
B20: 12-11 (ligand)
chain: B14 chain with S43P, P46S, L47V, M48Y, D56S, E60Q
B21: 82-7 (ligand)
chain: AHYNTEILKFMDVYQRSYCHPIETLVDIFQEFGVATNTFFKPPCVSVYRCGGCCNSEGLQCVPTEESNITMQIMRIKPHQGQHIGEMSFANHTSCRCMSKLD
B22: 12-7 (ligand)
chain: B21 chain with A1G, H2Q, Y3N, N4H, T5H, I7V, L8V
B23: 22-1 (ligand)
chain: AHYNTEILKSIDNEWRKTQCMPREVCIDVGKEFGVATNTFFKPPCVSVYRCGGCCNDEGLECVPTEESNITMQIMRIKPHQGQHIGEMSFLQHNKCECRPKKD

Positions count from the first letter of the chain named.

The first assay has as its target T1, VEGFR-3-Fc. Description: receptor-Fc IP. As for the experimental part:
(§1) The binding assay procedure was identical to the immunoprecipitation using pentahistidine antibody described in Example 2, apart from the composition of the immunoprecipitation (IP) mixes. The IP mixes used for the receptor binding analysis were as follows: For VEGFR-1 binding assays, the IP mix was phosphate buffered saline (PBS) containing 1.5% BSA, 0.06% Tween 20, 3 μg/ml heparin and 400 ng/ml VEGFR-1-Fc fusion protein (100 μl of this IP mix was added to 200 μl of sample supernatant); for VEGFR-2 binding assays, the IP mix was 82% conditioned cell supernatant from 293T cells transiently expressing VEGFR-2-Fc fusion protein in mixture with 18% of a PBS solution that contained 5% BSA, 0.2% Tween 20, and 10 μg/ml heparin (250 μl of IP mix was added to 200 μl of sample supernatant); and for VEGFR-3 binding assays, the IP mix was 82% conditioned cell supernatant from 293T cells transiently expressing VEGFR-3-Fc fusion protein, 18% of PBS containing 5% BSA, 0.2% Tween 20, and 10 μg/ml heparin (250 μl of IP mix was added to 200 μl of sample supernatant).
Regarding B1, the binding result was “binds”.
In the case of B2, the binding result is “no binding”.
Take B3: the binding result is “binds”.
The same measure, in the same setting: the same measure for B4: “no binding”.
On the same count and under the same terms, in the case of B5 it was “binds”; in that of B6, “binds”.
On the same count and under the same terms, the same measure for B7: “binds”.
As for B8, the binding result is “binds”.
On the same count and under the same terms, in the case of B9 it was “no binding”; in that of B10, “no binding”.
On the same count and under the same terms, in the case of B11 it was “binds”.
On the same count and under the same terms, the same measure for B12: “no binding”; for B13: “no binding”; for B14: “binds”.
Regarding B15, the binding result is given as “binds”.
Still for that read-out and setting: in the case of B16 it was “binds”; in that of B17, “binds”; in that of B18, “binds”.
As to B19, the binding result is “binds”.
Still for that read-out and setting: the same measure for B20: “binds”; for B21: “binds”; for B22: “binds”.
Turning to B23, the binding result is on record as “no binding”.

In a further assay the target is T2, VEGFR-2-Fc (human, UniProt P35968 20-322).
T2 construct: domain: first 3 Ig domains; used as conditioned supernatant of 293T cells; also called VEGFR-2-Fc fusion protein; not shown: Fc fragment of the pIg vector
T2 sequence (P35968 20-322): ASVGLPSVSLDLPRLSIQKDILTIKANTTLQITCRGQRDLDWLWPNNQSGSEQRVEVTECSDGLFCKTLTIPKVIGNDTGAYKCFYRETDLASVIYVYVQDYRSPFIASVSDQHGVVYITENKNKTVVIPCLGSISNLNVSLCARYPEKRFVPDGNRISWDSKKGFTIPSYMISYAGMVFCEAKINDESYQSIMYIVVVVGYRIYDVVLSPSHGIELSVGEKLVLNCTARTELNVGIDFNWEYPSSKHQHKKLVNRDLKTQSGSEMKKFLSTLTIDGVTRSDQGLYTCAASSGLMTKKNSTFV
Description: receptor-Fc IP. How it is done: as §1
For the molecule B1, the binding result is on record as “binds”.
Consider B2, for which the binding result is recorded as “no binding”.
On the same count and under the same terms, the same measure for B3: “binds”.
The same measure, in the same setting: in the case of B4 it was “binds”.
For the molecule B5, the binding result was “no binding”.
With B6, the binding result is given as “no binding”.
On the same count and under the same terms, the same measure for B7: “binds”; for B8: “no binding”.
On the same count and under the same terms, in the case of B9 it was “no binding”; in that of B10, “binds”; in that of B11, “binds”.
Turning to B12, the binding result is recorded as “binds”.
The same measure, in the same setting: in the case of B13 it was “no binding”; in that of B14, “binds”.
With B15, the binding result was “binds”.
Still for that read-out and setting: in the case of B16 it was “binds”; in that of B17, “binds”; in that of B18, “no binding”.
For B19, the binding result was “binds”.
The same measure, in the same setting: the same measure for B20: “binds”; for B21: “binds”; for B22: “binds”.
The same measure, in the same setting: in the case of B23 it was “no binding”.

The target of a further assay is T3, VEGFR-1-Fc (human, UniProt P17948 27-331).
T3 construct: domain: first three Ig domains; expressed in Drosophila S2 cells, purified on Protein A sepharose; also called VEGFR-1-Fc fusion protein; not shown: Fc fragment from the Signal-pIgPlus vector
T3 sequence (P17948 27-331): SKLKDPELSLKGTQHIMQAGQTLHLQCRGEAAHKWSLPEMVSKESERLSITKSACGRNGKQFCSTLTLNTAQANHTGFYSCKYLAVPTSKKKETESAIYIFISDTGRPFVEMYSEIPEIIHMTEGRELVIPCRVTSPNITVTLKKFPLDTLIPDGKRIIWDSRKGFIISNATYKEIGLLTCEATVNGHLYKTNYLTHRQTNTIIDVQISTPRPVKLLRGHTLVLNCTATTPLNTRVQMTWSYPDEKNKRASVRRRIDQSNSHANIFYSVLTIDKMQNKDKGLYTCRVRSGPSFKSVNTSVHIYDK
Put plainly: receptor-Fc IP. As for the experimental part:
as §1
B1: the binding result was “binds”.
As for B2, the binding result is listed as “no binding”.
Still for that read-out and setting: the same measure for B3: “no binding”.
On the same count and under the same terms, in the case of B4 it was “binds”; in that of B5, “binds”.
Turning to B6, the binding result is given as “binds”.
Consider B7, for which the binding result is “no binding”.
On the same count and under the same terms, the same measure for B8: “no binding”; for B9: “no binding”; for B10: “binds”.
Consider B11, for which the binding result is “binds”.
Same read-out and setting: the same measure for B12: “binds”; for B13: “binds”; for B14: “binds”.
For the molecule B15, the binding result is “binds”.
Still for that read-out and setting: the same measure for B16: “binds”.
Same read-out and setting: in the case of B17 it was “binds”.
For the molecule B18, the binding result was “binds”.
In the case of B19, the binding result is given as “binds”.
Same read-out and setting: in the case of B20 it was “binds”.
Consider B21, for which the binding result is “binds”.
Regarding B22, the binding result is on record as “binds”.
On the same count and under the same terms, in the case of B23 it was “no binding”.

Values taken from patent US20050267024A1 (published 2005).
